Laboratory results taken from the nanobody polyreactivity screen of Harvey et al. (2022).

Test: yeast display, Sf9 membrane polyspecificity reagent, FACS + sequencing; frameworks hold sequencing errors
How it was run: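 Polyreactivity labels are assigned by the sorting gate from which each nanobody was recovered. The gates were low and high (top ~1%), set on anti-HA fluorescence for expression and streptavidin fluorescence for reagent binding. Before sorting, galactose-induced (36–48 hours) yeast display cells were stained for 1 hour at 4 °C with 10% biotinylated, detergent-solubilized Sf9 membrane reagent.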

Row | Sequence | polyreactivity (PSR sort gate)
1 | QVQLVESGGGLVQAGGSLRLSCAASGSIFTPYAMGWYRQAPGKERELVAAISRSGGSTYYADSVKGRFTISRDKAKNTVYLQMNRLKPADSAVYYCAADVQTLITLGQFDYWGQGTQVTVSS | low polyreactivity
2 | HVQLVESVGGLVQAGGSLRLRCAASGLTFRCNGMGWYRQEPGKETELVAAISSSGGSTYYADSVKGRFTISRDNAKNTVYLQLNSLKPEDTGVYFCARLVFYSQGVREMDYWGQGTQVTGSS | high polyreactivity
3 | QVQLVDSGGGLVQAGGSLRLSCAASGSIFSSYVRGWYRQAPGKERELVAAITSRGGSTYYADSVKGRFTISRDNAKNTVYLQMNSLKPEDTAVYYCAKGGTLGGYWGQGTQVTVSS | high polyreactivity
4 | QVQLVESGGGLVQAGGTLRLSCAASGSTFYSYAMGWYRQAPGKERELVAAISGRGGTTYYADSVKGRFTISRDNAKNTVYLQMNSLKPEDTAVYYCAAEGWDWWTDDDYWGQGTQVTVSS | high polyreactivity
5 | QVQLVESGGCLVQAGGSLRLSCAASGFIFAYYAMGWYRQARGKERELVAAISYSGSTKYSDSVKGRFTISRDNSKNTVNLQMNSLKPEDTAVYYCAADRVWGTPQAYVPSQFDYWGQGTQVTVSS | low polyreactivity
6 | QVQLVESGGGLVQAGGSLRLSSAASGYTYYVYAMGWYRQAPGKERELVAAISGGSNTYYADSVKGRFTISRDNAKNTVYLQMNSRKPEDTAVFYCAKSSTTYRQRARYDYWGLGTQVTVSS | high polyreactivity
7 | QVQLVESGGGLVQAGGSLRLSCAASGRIGKYAMGWYRQAPGKERELVATISSTGTTNYADSVKGRFTISRDNAKNTVYLQMNSLKPEDTAVYYCAGRWEYVGYRRRYYRFDYWGQGTQVTVSS | high polyreactivity
8 | QVQLVESGGGLVQAGGSLRLSCAASGSIFYGYAMGWYRQAPGKERELVAAISGNGGSTYYADSVKGRFTISRDNAKNTVYLQMNRLKPEDTAVYYCAVEVYHYGFEYDYWGLGTQVTVSS | high polyreactivity
9 | QVQLVESGGCLVQAGGSLRLSCAASGSTFGYNAMGWYRQATGKERELVAAITWTGASTYYADSVKGRFTISRDNAKNTVYLKINSLKPEDTEVYYCNRVGYQSMNYWGQGTQVTVSS | low polyreactivity
10 | QVQLVESGGGLVQAGGSLRLSCAASGFTFPYYAMGWYRQAPGKERELVAAISKSGGSTYYADSVKGRFTISRDNAKNTVYLQMNSLKPEDTAVYYCAAQGGSKYRGYYYWGQGTQVTVSS | high polyreactivity
11 | QVQLVESGGGLVQAGGSLRLSCAASGSTFINYAMGWYRQAPGKERELVAAISSSGGRTYYADSVKGSFTISRDNAKNTVYFLMNSLKPEDTAVYYCAASGRKNGMNYWGQGTLVTVSS | high polyreactivity
12 | QVQLVESGGGLVQAGGSLRLSCAASGRNFDDYAMGWYRQAPGKERELVAAISDSGGTTYYADSVKGRFTISRDNAKNTVYLQMNSLKPEDTAVYYCAKRYYGPHYWGQGTQVTVSS | low polyreactivity
13 | QVQLVESGGGLVQAGGTLRLSCAASGSTFTGNAMGWYRQAPGKERELVASISTGGSTNYADSVKGRFTISRDNAKNTVYLQMNSLKPEDTAVYYCAKRIRYNWTFDDWGQGTQVTVSS | low polyreactivity
14 | QVHLVESGGGLVQAGGSLRLSSADSGRTFAYNAMRWYRPAPGKERELVAAITWSGDSTYYADSVKGRFTISRDNAKNTVYFQMNSLKPEDTEVYYCAADYFGGPSYEFDYWGQGTQVTVSS | low polyreactivity
15 | QVQHVESGGGLVQAGGSLRLSCAASGIILGSYAMGWYRQAPGKEMELVAAIRWSRGRTYYADSVKGRFTISRDNAKNTVYLQMNSLKPEDSAVYYCAAANSRRGYDYWGQGTQVTVSS | high polyreactivity
16 | QVQLVESGGGLVQAGGSLRLSCAASGSIFGEIAMGWYRQAPGKERELVAAISSGVSTNYADSVKGRFTISRDNAKNTVYLQMNSLKPEDTAVYYCAVDSLPNSPYDYWGHGTQVTVSS | low polyreactivity
17 | QVQLVESGGCLVQAGGSLRLSCAASGSTFDYYAMGWYTQAPGKERELVAAISSSGSSTYYADSVKGRFTISRDNAKNTVYLQMNSLKPEDTAVYYCAKGTNYRDDYWGQGTQVTVSS | low polyreactivity
18 | QVQLVESGGGLVQAGGSLRLSCAASGFIFHGYAMGWYRQAPGKERELVAAISGTGGSTYYADSVKGRFTISRDNAKNTVYLQMNSLKPEDTAVYYYKAERSGNGYWGQGTQVTVSS | high polyreactivity
19 | QVQLVESGGGLVQAGGSLRLSCAASGIIFQTYAMGWYRQAPGKERELVAAISRSGGSTYYADSVKGRFTISRDNAKNTVYLQMNSLKPEDTAVYYCAAYGYHVNWLKGNYWGQGTQVTVSS | high polyreactivity
20 | QVQLVESGGGLVQAGGSLRLSCAASGSIFSTYAMGWYRQAPVKERELVAAINSGDSTSYADSVKGRFTISRDNAKNTVYLQMNSLKPEDTAVYYCAAKTGGYWYLRRTARYESWGQGTQVTVSS | low polyreactivity
21 | QVQLVESGGGLVQAGGRLRLSCAASGNIFHYNAMGGSRQAPGKERELVAAITWSGGNTYYADSVKGRFTISRDNAKNTVYLQLNSLKPEDTAVYYCAAEFPQRATGGRYKTEYDYWGQGTQVTVSS | low polyreactivity
22 | QVQLVESGGGLVQPGGSLRLSCAASGITFRGYAMGWYRQAPGKERELVATISYRGGNTYYADSVKGRFTISRDNAKNTVYLQMNSLKPEDTAVYYCARKYFRTSNLYGYWGQGTQVTVSS | high polyreactivity

Row | Sequence | polyreactivity (PSR sort gate)
23 | QVQRVESGGGLVQAGGSLRLSCAASGSNFRVYVMGWYRQAPGKERELVARIRYRSGRTNYADSVKGRFTISRDNAKNTVYLQMNSLKPEDTAVYYCAARTPAYARTYGYWGQGTQVTVSS | high polyreactivity
24 | QVQLVESGGGLVQAGGSLRLSCDASGFTIYRYAMGWYRQAPGKERELVAAISSGGGSTYYADSVKGRFTISRDNAKNTVYLQMYILKPEDNAVYYCNAQGFIYYWLRYDYWGQGTQVTVSS | high polyreactivity
25 | QVQLVESGGGLVQAGGSLRLSCAASGRTDVAKGMGRYRQAPGKEKEMVAAINDGDVTYYADSVKGRFTISRDNAKNTVYLQMNSLKPEDTAVYYCAADIIYGYEVYTYTSDYWGQGTQVTVSS | low polyreactivity
26 | QVQLVESGGGLVQAGGSLRLSCAASGRIFYYYDMGWYRQAPGNERELVAGINDDSSTYYADSVKGRFTISRDNAKNTVYLQMNSLKPEDTAVYYCNAGPSWYPCWYYYWGQGTQVTVSS | low polyreactivity
27 | HVQLVESGGGLVQAGGSLRLSCAASGFTFANNAMGWYRQAPRKERELVAAISRSGGSTYYADSVKGRFTISRDNAKNTVYLQMNSLKPEDTAVYYCAVYNRPYKEYGYNYWGQGTQVTVSS | high polyreactivity
28 | QVQLVESGGGLVQAGGSLRLSCAASGRTLSWYAMGWYRQAPGKEREFVAAITSSGASTYYADSVKGRFTISRDNAKNTVYLQMNSLKPEDTAVYYCAAKMRGYPRRRYDYCGQGTQVTVSS | high polyreactivity
29 | QVQLVESGGGLVQAGGSLRLSCAASGRTFGYYAMGWYRQAPGKERELVAAISWRGTSTYYADSVKGRFTISRDNAKNTVYLQMNSLKPEDTAVYYCAVGRTVAHRFIAGDYWGQGTQVTVSS | high polyreactivity
30 | QVQLVESGGGLVQAGGSRRLSCAASGRIICVYAMGWYRQAPGNERDLVAAITIGGSTYYADSVKGRFTISRDNAMNTFYLQMNSLKPEDTAVYYCNRRYNWYLHHYDYWGQGTQVTVSS | high polyreactivity
31 | QVQLVESGGGLVQAGGSLRLSCAASGMICGVYAMGWYRQAPGKERELVAAIDGNGSSTYYADSVKGRFTISRDNAKNTVYLQMNSLKPEDTAVYYCAAGYWSYLYYWYDFDYWGQGTQVTVSS | low polyreactivity
32 | QVQLVESGGGLVQAGGSLRLSSAASGFNSSRNAMGWYRQAPGKERELVATISSGGDTYYADSVKGRFTISRDNAKNTVYLQMNSLKPEDTAVYYCATDRAERTGYTRYVKTYNYWGQGTQVTVSS | low polyreactivity
33 | QVQLVESGGGLVQAGGSLRLSCAASGLTIITNAMGWYRQAPGKERELVAAISGTGGSTYYADSVKGRFTISRDNAKNTVYLQMNSLKPEDTAVYYCAAAPYTFWVGDSWGQGTQVTVSS | high polyreactivity
34 | QVQLVESGGGLVQAGGSLRLSCAASGSIFDYNTMGWYRQAPGKERELVAAISSGGSTYYADSVKGRFTISRDNAKNTVYLQMNSLKPEDTAVYYCAARRAGWWGFYYWGQGTQVTVSS | high polyreactivity
35 | QVQLVESGGGLVQEGCSLRLICAASGSIFGYYAMGWYRQAPGKERELVAAISTAGSTNYADSVKGRFTISRDNAKNTVYLQMNSLKPEDTAVYYCAKKSSWYYPERFDYWGQGTQVTVSS | low polyreactivity
36 | QVQLVESGGGLVQAGGSLRLSCAASGFTFVNNAMGWYRQAPGKERELVAAISGGGTTNYADSVKGRFTISRDNAKNTVYLQMNSLKPEDTAVYYCAARRYFGLWYFWYDYWGQGTQVTVSS | high polyreactivity
37 | QVQLGESGGGLVQAGGSLRLSCAACGSIFKPYAMGWYRQAPGTERELVAAISGIGGSTYYADSVKGRFTISRDTAKNTVYLQMNSLTPEDTAVYYCAADTFFKIFSEYNYWGQGTQVTLSS | high polyreactivity
38 | QVQLVESGGGIVQAGGSLRLRCAASGSIISVYAMGWYRQAPGKERELLDGITISGGRTYYADSVKGRFTISRDYAKNTVYLQMNSMKPEDTAVYYCAADWVYPPGLNDSVHFGEYDYWGQGSQVTVSS | low polyreactivity
39 | QVQLVESGGGLVQAGGSLRLSCAASGFIFYGNAMGWYRPAPGKERELVAAIRWNGGRTYYADSVKGRFTISRDNAKNTVYLQMNSLKAEDTAVYYCAARISQLKYGYWGQGTQVTVSS | high polyreactivity
40 | QVQLVESGGGLVQAGGCLRLSCASSGRTFHLYAMGWYRQAPGKERELVAAITWSSGRTYYSDSVKGRFTISRDNAKNTVYVQMKSLKPEDTAVFYCAADVWGGLLPGYDYWGQGTQVTVSS | high polyreactivity
41 | QVQLVESGGGLVQAGGSLRLSCAASGRTFGYYAMGWYRQAPGKERELVAAISRSGGSTYYADSVKGRFTISGDNAKNTVYLQMNSLKPEDTAVYYCAVKGYVKSDYWGQGTQVTVSS | high polyreactivity
42 | QVQLVESGGGLVQAGGSLRLSCADSGSIFYYNAMGWYRQAPGKERELVAAISVSGGSTYYADSVKGRFTISRDNAKNTVYLQMNSLKPEDTAVYYCAAEWLYYYWLPGRADYLEYDYWGQGTQVTVSS | low polyreactivity
43 | QVQLVESGAGLGQAGGSLRLSCAASGSNDIYAMGWNRQEPGKEREFVAAISYSSGSTYYADSVKGRFTISRDNAKNTVFLQMNSLIPVDTAVYYCAAVWQAGVYRYYYWGQGTQVTVSS | high polyreactivity
